A short description of the data set: yeast display, Sf9 membrane polyspecificity reagent, FACS + sequencing; frameworks hold sequencing errors. The method in brief:
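A nanobody's polyreactivity label depends on the gate it was sorted from. Yeast display cells were stained with 10% biotinylated, detergent-solubilized Sf9 membrane reagent for 1 hour at 4 °C, enriched on streptavidin microbeads and sorted by FACS. The low and high (top ~1%) gates were set on anti-HA fluorescence for expression and streptavidin fluorescence for reagent binding.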
As to “QVQLVESGGGLVQAGGSLRLSCADSGSTFKYYAMGWYRQAPGKEREFVASINWSGVSTYYADSVKGRFTISRDNPKNTVYLQMNSLKPEDTSVYYCAARVRGKYDYWGQGTQVTVSS”, the “polyreactivity (PSR sort gate)” value was “high polyreactivity”. For “QVQLVESGGGLVQAGGSLRLSCADSGSTFRIFAMGWYRQAPGKERELVAAITGGGTHYADSVKGRFTISRDNAKNTVYLQMNSLTPEDTAVYYCAANRSKLYRYAMGYWGQGTQVTVSS”, the “polyreactivity (PSR sort gate)” value is recorded as “high polyreactivity”.

As to “QVQLVESGGGLVQAGGSLRLSCADSGSTFSYNAMGWYRQAPGKERELVATITYSGTSTHYADSVKGRFTISRDNAKNTVYLQMNSLKPEDTAVYYCNAYSKGWGLPDDYWGQGTLVTVSS”, the “polyreactivity (PSR sort gate)” value is on record as “low polyreactivity”. The entry for “QVQLVESGGGLVQAGGSLRLSCADSGSTFWYYVMGWYRQAPGKERELVAVINTRGGSTYYADSVKGRFTISRDNAKNTVYLQMNSLKPEDTAVYYCNARKVKRGKYNYWGQGTQVTVSS” is “high polyreactivity”; for “QVQLVESGGGLVQAGGSLRLSCADSGSTFYPYAMGWYRQAPGKEREFVAAISRGGTTTYYADSVKGRFTISRDNAKNTVYLQMNSLKPEDTAVYYCAARYVSVYRWTYDYWGQGTQVTVSS” it is “high polyreactivity”; for “QVQLVESGGGLVQAGGSLRLSCADSGSTFYYYAMGWYRQAPGKERELVAAISTSGGSTYYADSVKGRFTISRDNAKNTVYFQMNSLKPEDTAVYYCAARYRRGMGYWGQGTQVTVSS” it is “high polyreactivity”. As to “QVQLVESGGGLVQAGGSLRLSCADSGSTIYPYAMGWYRQAPGKERELVAAINRSGGRTYYADSVKGRFTISRDNAKNTVYLQMISLKPEDTAVYYCAARVRSRNSYDYWGQGTQVTVSS”, the “polyreactivity (PSR sort gate)” value is listed as “low polyreactivity”. To “QVQLVESGGGLVQAGGSLRLSCADSGSTLIGNAMGWYRQAPGKERELVAAISSGGRTYYADSVKGRFTISRDNAKNTVYLQMNSLKPEDTAVYYCAADTVGTNVVSPELDYWGQGTQVTVSS” belongs “low polyreactivity”. Turning to “QVQLVESGGGLVQAGGSLRLSCADSGSTYGGYAMGWYRQAPGKERELVAAISQSGGRTYYADSVKGRFTISRDNAKITVYFQMNSLKPEDTAVYYCAAYRTGYGRFTLDYWGQGSQVTVSS”, the “polyreactivity (PSR sort gate)” value is “high polyreactivity”. As to “QVQLVESGGGLVQAGGSLRLSCADSGYTFLDYAMGWYRQAPGKERELVAAINSGGSTYYADSVKGRFTISRDNAKNTVYLQMNSLKPEDTAVYYCAREDYVSYRLLYSLFDYWGQGTQVTVSS”, the “polyreactivity (PSR sort gate)” value is “low polyreactivity”. To “QVQLVESGGGLVQAGGSLRLSCADSGYTFYFYAMGWYRQAPGKESELVAAITGGGTTSYADSVKGRFTISRDNAKNTVYLEMNSLKPEDTAFYYCAAYAYGVWQYQYGGNYWGQGTQVTVSS” belongs “low polyreactivity”; to “QVQLVESGGGLVQAGGSLRLSCADSVFTFGYYAMGWYRQAPGKERELVAAISRNGGRTYYADSVKGRFTISRDNAKNNVYLQMNSLKTVYTAVHYCNALLFFLNRVWSFDYWGQGTQVTVSS”, “high polyreactivity”; to “QVQLVESGGGLVQAGGSLRLSCADSVSIVGYYTMGWYRQAPWKARELVSGITSTGNTNYADSVKGRFTISRDNAKNTVYLHMNSLKPEHTAVYYCAADSESTWDFGWELEVGYDYWGQGTQVNVSS”, “low polyreactivity”. With “QVQLVESGGGLVQAGGSLRLSCAEYAMGCYRQAPGKERELVATITARGGSTYADSVKGRFTISRDNAKNTVYLQMNSLKPEDTAVYYCNADYGLFYRATFYGYDYWGQCTQVTVSS”, the “polyreactivity (PSR sort gate)” value is on record as “low polyreactivity”. To “QVQLVESGGGLVQAGGSLRLSCAGLRIYLPGYAKGWYIQAPGKERELVAVISGSGSGTYYADSVKGRFTISLDNAKNTVYLQMNSLKPEDTAVYYCAADAGSNEAYFRRMDYWGQGTQVTVSS” belongs “high polyreactivity”.

As for “QVQLVESGGGLVQAGGSLRLSCAGSGFTFQYYAMGWYRQAPGKERELVAAMSWGGGSTYYADSVKGRFTISRDNAKKTVYLQMNSLKPEDTAVYYCNAYDYLSAGDDYWGQGTQVTVSS”, the “polyreactivity (PSR sort gate)” value is “low polyreactivity”.

Source of the values: the nanobody polyreactivity screen of Harvey et al. (2022).
